± gives the standard deviation of the averaged measurements.
B1: library; a variant is named by its letters at N, in order (parent)
chain: GCUGUCACCGGUGUAUUACCCUAGUGGUCGACCGGUCUGAUGAGUCUNNNNNNAGACGAAACAGC

Assays:
[1] = variants of: B1; assay: normalized RNA/DNA level with ligand (relative to sTRSVctl = 100) (log10 (% of sTRSVctl)); ligand: hypoxanthine (xanthine aptamer); higher = less ribozyme self-cleavage, higher mRNA level; conditions: ligand concentration (+) RNA-Seq: 5 mM, HEK293T, reporter: mCherry (pCS4076), ligand present: yes
How it was run: (§1)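 Library plasmids encoding reporter-linked ribozyme switches (mCherry, or eGFP for some folinic acid experiments) were transfected into HEK293T at 4 µg per 6-well well. Ligand, when used, was added 1 h before transfection. Total RNA was extracted with EDTA 72 h later, then reverse-transcribed, amplified, barcoded and sequenced. RNA level was RNA reads over DNA reads, divided by a spiked-in non-cleaving control (or the top 25 sequences), ×100, log10; only sequences with ≥100 DNA reads were kept.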

[2] = variants of: B1; assay: normalized RNA/DNA level without ligand (relative to sTRSVctl = 100) (log10 (% of sTRSVctl)); ligand: hypoxanthine (xanthine aptamer); higher = less ribozyme self-cleavage, higher mRNA level; conditions: HEK293T, reporter: mCherry (pCS4076), ligand present: no
How it was run: as §1

Variant | normalized RNA/DNA level with ligand (log10) [1] | normalized RNA/DNA level without ligand (log10) [2]
GAAAUC | 1.97 ± 0.022 | 1.88 ± 0.078
UAAAUC | 1.93 ± 0.044 | 1.97 ± 0.028
CAAAUG | 1.913 ± 0.011 | 1.82 ± 0.041
CAAAUU | 1.95 ± 0.029 | 1.806 ± 0.014
GAAAUU | 1.95 ± 0.046 | 1.87 ± 0.039
CAACAA | 1.88 ± 0.03 | 1.701 ± 0.015
AAACAC | 1.885 ± 0.011 | 1.712 ± 0.0056
UAACAC | 1.91 ± 0.05 | 1.7 ± 0.053
CAACAG | 1.92 ± 0.021 | 1.717 ± 0.013
UAACAU | 1.919 ± 0.013 | 1.78 ± 0.024
CAACCA | 1.95 ± 0.066 | 1.803 ± 0.0098
UAACCA | 1.941 ± 0.018 | 1.89 ± 0.042
CAACCC | 1.98 ± 0.012 | 1.855 ± 0.011
GAACCC | 1.945 ± 0.0058 | 1.88 ± 0.026
CAACCG | 1.95 ± 0.096 | 1.89 ± 0.028
CAACCU | 1.98 ± 0.049 | 1.911 ± 0.0025
GAACCU | 1.95 ± 0.043 | 1.92 ± 0.026
UAACCU | 1.983 ± 0.011 | 1.91 ± 0.04
AAACGC | 1.91 ± 0.063 | 1.68 ± 0.021
CAACGG | 1.85 ± 0.08 | 1.42 ± 0.043
CAACGU | 1.963 ± 0.0077 | 1.89 ± 0.025

Variant | normalized RNA/DNA level with ligand (log10) [1] | normalized RNA/DNA level without ligand (log10) [2]
GAACGU | 1.9 ± 0.037 | 1.688 ± 0.014
AAACUA | 1.89 ± 0.043 | 1.7704 ± 0.0017
CAACUC | 1.97 ± 0.028 | 1.96 ± 0.032
GAACUC | 1.9377 ± 0.00012 | 1.9 ± 0.01
UAACUC | 2.009 ± 0.013 | 1.97 ± 0.04
AAACUC | 1.95 ± 0.035 | 1.95 ± 0.021
CAACUG | 1.9 ± 0.045 | 1.84 ± 0.022
GAACUG | 1.87 ± 0.05 | 1.519 ± 0.0031
UAACUU | 1.97 ± 0.0029 | 1.899 ± 0.0086
CAAGAC | 1.9181 ± 0.0013 | 1.825 ± 0.015
AAAGAC | 1.9 ± 0.039 | 1.82 ± 0.019
CAAGAU | 1.94 ± 0.048 | 1.76 ± 0.048
GAAGAU | 1.94 ± 0.035 | 1.8 ± 0.075
UAAGAU | 1.907 ± 0.0056 | 1.72 ± 0.057
UAAGCA | 1.89 ± 0.031 | 1.8271 ± 0.0017
GAAGCC | 1.948 ± 0.016 | 1.85 ± 0.041
UAAGCC | 1.9849 ± 0.0019 | 1.876 ± 0.015
AAAGCC | 1.94 ± 0.04 | 1.817 ± 0.0038
CAAGCG | 1.94 ± 0.037 | 1.82 ± 0.03
CAAGCU | 1.981 ± 0.0081 | 1.892 ± 0.003
GAAGCU | 1.982 ± 0.015 | 1.84 ± 0.031

Variant | normalized RNA/DNA level with ligand (log10) [1] | normalized RNA/DNA level without ligand (log10) [2]
UAAGCU | 1.946 ± 0.013 | 1.874 ± 0.011
CAAGGA | 1.912 ± 0.012 | 1.79 ± 0.044
GAAGGC | 1.889 ± 0.016 | 1.52 ± 0.044
UAAGGC | 1.945 ± 0.0051 | 1.839 ± 0.0074
CAAGGG | 1.72 ± 0.036 | 1.28 ± 0.043
GAAGGU | 1.91 ± 0.068 | 1.73 ± 0.06
CAAGUA | 1.89 ± 0.054 | 1.779 ± 0.011
GAAGUA | 1.88 ± 0.05 | 1.741 ± 0.0072
UAAGUA | 1.89 ± 0.041 | 1.8797 ± 0.00095
GAAGUC | 1.97 ± 0.022 | 1.87 ± 0.035
UAAGUC | 1.932 ± 0.0068 | 1.925 ± 0.016
AAAGUC | 1.98 ± 0.07 | 1.919 ± 0.0031
CAAGUG | 1.92 ± 0.026 | 1.81 ± 0.042
CAAGUU | 1.93 ± 0.021 | 1.939 ± 0.0037
UAAGUU | 1.97 ± 0.025 | 1.83 ± 0.02
UAAUAC | 1.929 ± 0.013 | 1.79 ± 0.026
AAAUAC | 1.89 ± 0.026 | 1.77 ± 0.048
CAAUAG | 1.905 ± 0.0064 | 1.69 ± 0.03
CAAUAU | 1.929 ± 0.016 | 1.811 ± 0.01
GAAUAU | 1.93 ± 0.043 | 1.8073 ± 0.00093

Source: the supplement of paper PMC6757056
